Paper PMC9951308
Starred links: 1 amine or outer side, 2 acyl side, 3 side chain; linkers in the order of their positions; H or OH if unused. Positions of bridges follow the written chain, without caps; N, C: chain ends. Residues, ends and D or L forms follow the SMILES beside them. TBMB = c1c(C[*:1])cc(C[*:3])cc1C[*:2]; mXylylene = c1cc(C[*:1])cc(C[*:2])c1

Experiment: circular dichroism
Conditions: PBS 10 mM; pH 7.4; 25 °C; 10 uM

Row | Compound | helicity
1 | CC(=O)N[C@@H](C)C(=O)N[C@@H](C)C(=O)N[C@@H](C)C(=O)N[C@@H](C)C(=O)N[C@@H](CCCCN)C(=O)N[C@@H](C)C(=O)N[C@@H](C)C(=O)N[C@@H](C)C(=O)N[C@@H](C)C(=O)N[C@@H](CCCCN)C(=O)N[C@@H](Cc1c[nH]c2ccccc12)C(=O)N[C@H]1CSCc2cc3cc(c2)CSC[C@H](NC(=O)[C@H](C)NC(=O)[C@H](C)NC1=O)C(=O)N[C@@H](C)C(=O)N[C@H](C(N)=O)CSC3 (Ac-AAAAKAAAAKWCAACAC-NH2; linker 12-15-17 via TBMB) | 33%
2 | CC(=O)N[C@@H](C)C(=O)N[C@@H](C)C(=O)N[C@@H](C)C(=O)N[C@@H](C)C(=O)N[C@@H](CCCCN)C(=O)N[C@@H](C)C(=O)N[C@@H](C)C(=O)N[C@@H](C)C(=O)N[C@@H](C)C(=O)N[C@@H](CCCCN)C(=O)N[C@@H](Cc1c[nH]c2ccccc12)C(=O)N[C@H]1CSCc2cc3cc(c2)CSC[C@H](NC(=O)[C@H](C)NC(=O)[C@H](C)NC1=O)C(=O)NCC(=O)N[C@H](C(N)=O)CSC3 (Ac-AAAAKAAAAKWCAACGC-NH2; linker 12-15-17 via TBMB) | 65%
3 | CC(=O)N[C@@H](C)C(=O)N[C@@H](C)C(=O)N[C@@H](C)C(=O)N[C@@H](C)C(=O)N[C@@H](CCCCN)C(=O)N[C@@H](Cc1c[nH]c2ccccc12)C(=O)N[C@H]1CSCc2cccc(c2)CSC[C@@H](C(N)=O)NC(=O)CNC(=O)[C@H](C)NC(=O)[C@H](C)NC(=O)[C@H](C)NC1=O (Ac-AAAAKWCAAAGC-NH2; linker 7-12 via mXylylene) | 34%
4 | CC(=O)N[C@@H](C)C(=O)N[C@@H](C)C(=O)N[C@@H](C)C(=O)N[C@@H](C)C(=O)N[C@@H](CCCCN)C(=O)N[C@@H](Cc1c[nH]c2ccccc12)C(=O)N[C@H]1CSCc2cccc(c2)CSC[C@@H](C(=O)NCC(=O)N[C@@H](C)C(N)=O)NC(=O)[C@H](C)NC(=O)[C@H](C)NC1=O (Ac-AAAAKWCAACGA-NH2; linker 7-10 via mXylylene) | 33%
5 | CC(=O)N[C@@H](C)C(=O)N[C@@H](C)C(=O)N[C@@H](C)C(=O)N[C@@H](C)C(=O)N[C@@H](CCCCN)C(=O)N[C@@H](Cc1c[nH]c2ccccc12)C(=O)N[C@H]1CSCc2cc3cc(c2)CSC[C@H](NC(=O)[C@H](C)NC(=O)[C@H](C)NC1=O)C(=O)NCC(=O)N[C@H](C(N)=O)CSC3 (Ac-AAAAKWCAACGC-NH2; linker 7-10-12 via TBMB) | 59%
6 | CC[C@H](C)[C@@H]1NC(=O)[C@@H](NC(=O)[C@H](C)NC(=O)[C@H](CC(C)C)NC(=O)[C@H](CCC(N)=O)NC(=O)[C@H](CCCNC(=N)N)NC(=O)[C@H](C)NC(=O)[C@@H](NC(=O)[C@H](CCC(N)=O)NC(C)=O)C(C)C)CSCc2cc3cc(c2)CSC[C@H](NC(=O)[C@H](Cc2ccc(O)cc2)NC1=O)C(=O)NCC(=O)N[C@H](C(N)=O)CSC3 (Ac-QVARQLACIYCGC-NH2; linker 8-11-13 via TBMB) | 38%
7 | CC[C@H](C)[C@H](NC(=O)[C@H](CCCNC(=N)N)NC(C)=O)C(=O)N[C@@H](C)C(=O)N[C@@H](CCCNC(=N)N)C(=O)N[C@@H](CC(C)C)C(=O)N[C@@H](CCC(=O)O)C(=O)N[C@@H](CCC(=O)O)C(=O)N[C@H]1CSCc2cc3cc(c2)CSC[C@H](NC(=O)[C@H](CCCCN)NC(=O)[C@H](Cc2ccc(O)cc2)NC1=O)C(=O)NCC(=O)N[C@H](C(N)=O)CSC3 (Ac-RIARLEECYKCGC-NH2; linker 8-11-13 via TBMB) | 48%
8 | Ac-AAAAKAAAAKAAAAKAW-NH2 | 48%
9 | Ac-AAAAKAAAAKAW-NH2 | 17%
10 | Ac-QVARQLAEIY-NH2 | 8%
11 | Ac-RIARLEEKYK-NH2 | 17%
12 | Ac-WAAAKAAAAKALAAIGV-NH2 | 37%
13 | Ac-WAAAKAAAAKALAALGF-NH2 | 38%
14 | Ac-WAAAKAAAAKALAALGI-NH2 | 52%
15 | Ac-WAAAKAAAAKALAALGL-NH2 | 54%
16 | Ac-WAAAKAAAAKALAALGV-NH2 | 44%
17 | Ac-WAAAKAAAAKALAALGW-NH2 | 44%
18 | Ac-WAAAKAAAAKALAALGY-NH2 | 45%
